Assay results: US20250381283A1, “METHOD FOR TREATING SOLID TUMOR” (priority 2022, published 2025)

Biological target: T1, TROP2 (Trophoblast cell surface antigen 2) (UniProt P09758 27-323, limits assumed)
T1 sequence (looked up): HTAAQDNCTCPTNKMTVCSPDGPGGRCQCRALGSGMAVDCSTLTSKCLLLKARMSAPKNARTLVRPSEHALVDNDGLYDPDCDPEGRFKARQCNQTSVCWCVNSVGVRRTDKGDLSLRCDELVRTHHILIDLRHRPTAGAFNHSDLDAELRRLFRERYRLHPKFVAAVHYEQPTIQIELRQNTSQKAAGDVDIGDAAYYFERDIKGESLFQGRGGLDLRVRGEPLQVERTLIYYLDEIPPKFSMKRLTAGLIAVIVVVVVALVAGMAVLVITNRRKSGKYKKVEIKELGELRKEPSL
Assay: cell-based or functional assay

B1: ADC1 (hRS9 antibody conjugated to CB07-Exatecan) (antibody, human IgG1, kappa, DAR 4.2, V domains shown)
VH: QVQLQQSGSELKKPGASVKVSCKASGYTFTNYGMNWVKQAPGQGLKWMGWINTYTGEPTYTDDFKGRFAFSLDTSVSTAYLQISSLKADDTAVYFCARGGFGSSYWYFDVWGQGTLVTVSS
VL: DIQLTQSPSSLSASVGDRVSITCKASQDVSIAVAWYQQKPGKAPKLLIYSASYRYTGVPDRFSGSGSGTDFTLTISSLQPEDFAVYYCQQHYITPLTFGAGTKVEIKR
modifications: CB07-Exatecan linker-drug conjugated to sulfhydryls of TCEP-reduced cysteines; average DAR (p) 4.2 over the whole antibody; positions not given
growth inhibition EC50 (CCK-8 cell proliferation, 120 h), MDA-MB-453 cells: 640 ng/mL | growth inhibition EC50 (CCK-8 cell proliferation, 120 h), MDA-MB-468 cells: 158 ng/mL | growth inhibition EC50 (CCK-8 cell proliferation, 120 h), MX-1 cells: 233 ng/mL
